US20250206828A1, “ANTI-ADENOSINE RECEPTOR (A2aR) ANTIBODIES AND THE USE THEREOF” (Adept Therapeutics Inc., priority 2022, published 2025)

Target: human A2aR (Homo sapiens, UniProt P29274)
Assay: Binding of humanized anti-A2aR antibodies in transfected Expi293F cell supernatant to human A2aR on HEK293 cells (FACS, MFI)
Conditions: for binding to human A2aR on cell surface, mean fluorescence intensity (MFI): supernatant normalized to 1 μg/ml antibody, HEK293 cells stably overexpressing human A2aR, greater MFI = stronger binding, parental value average of triplicate
Procedure: Briefly, HEK293 cells that stably overexpress human A2aR (HEK-hA2aR OCL, BPS Bioscience, Cat. 79381) were collected from fresh culture. Cells were then resuspended in FACS buffer (1×DPBS/1% FBS) at 10^6/ml concentration. One hundred microliters (100 μl) of cells were aliquoted into each well of a 96 well plates. After centrifugation, cell pellets in each well were then resuspended with 100 μl normalized supernatant samples containing 1 μg/ml humanized anti-A2aR monoclonal antibody variants collected from transfected Expi293 cell culture. The supernatants were mixed with the cells and incubated on ice for 1 hours. After washing the mixtures of the supernatants containing expressed antibodies and the A2aR-expressing cells with FACS buffer, one hundred microliters (100 μl) of 1:400 diluted PE-conjugated anti-human Fc secondary antibody (Jackson Immuno Research, Cat. 109-116-098) was added to each well followed by an incubation for 30 minutes on ice. After washes with FACS buffer, stained cells were resuspended in 150 μl of 7-AAD (Biolegend, Cat. 420404) diluted 1:100 in 1×DPBS buffer and incubate for 5 minutes in the dark at room temperature before FACS analysis. The mean fluorescence intensity (MFI) was obtained using Guava 11HT or 5HT (Luminex). Data was analyzed using Flowjo software.
As shown in Tables 22-24, exemplary humanized anti-A2aR antibodies bind to A2aR expressed on a cell surface. A greater MFI value means stronger binding of the exemplary antibody to A2aR expressed on a cell surface.

[1] = supernatant with 1 μg/ml antibody, HEK293 overexpressing human A2aR, heavy chain (row) x light chain

Sequence of human A2aR (P29274 whole entry): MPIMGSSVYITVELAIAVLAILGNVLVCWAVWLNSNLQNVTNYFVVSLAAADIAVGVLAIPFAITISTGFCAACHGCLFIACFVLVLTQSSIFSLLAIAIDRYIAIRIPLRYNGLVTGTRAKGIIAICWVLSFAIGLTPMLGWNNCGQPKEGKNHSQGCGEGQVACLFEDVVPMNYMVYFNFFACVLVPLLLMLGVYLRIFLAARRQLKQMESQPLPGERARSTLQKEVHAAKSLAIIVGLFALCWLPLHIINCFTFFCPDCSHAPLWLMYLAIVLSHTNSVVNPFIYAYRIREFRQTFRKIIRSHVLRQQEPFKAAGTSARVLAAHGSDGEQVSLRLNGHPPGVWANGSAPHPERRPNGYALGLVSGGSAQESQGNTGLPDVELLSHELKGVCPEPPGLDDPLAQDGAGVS

| Molecule | binding to human A2aR on cell surface, mean fluorescence intensity (MFI) | MFI, binding to human A2aR on cell surface (3F6-9G5 derived) [1] | other results |
| --- | --- | --- | --- |
| Hu1B5-H3/Hu1B5-L1: humanized anti-A2aR IgG1 FES antibody; HCVR SEQ ID NO:54, LCVR SEQ ID NO:71 (antibody, V domains shown, IgG1 FES constant regions) VH: EVQLVQSGAEVKKPGASVKVSCKTSGFTFTRFWMNWVRQAPGQGLEWIGRIDPYDSETQYNHKFWDRATLTVDTSSSTVYMELSSLRSEDTAVYYCGRSLYGKGDYWGQGTTVTVSS VL: DVVMTQSPLSLPVTLGQPASISCRSSQSIVHSNGNTYLEWFQQRPGQSPRRLIYKVSNRFSGVPDRFSGSGSGTDFTLKISRVEAEDVGVYYCFQGSHVPLTFGGGTKVEIK | 152 | – | – |
| Hu1B5-H2.1/Hu1B5-L1: humanized anti-A2aR IgG1 FES antibody; HCVR SEQ ID NO:53, LCVR SEQ ID NO:71 (antibody, V domains shown) VH: EVQLVQSGAEVKKPGASVKVSCKTSGFTFTRFWMNWVRQAPGQGLEWIGRIDPYDSETQYNHKFWDRVTMTVDTSTSTVYMELSSLRSEDTAVYYCGRSLYGKGDYWGQGTTVTVSS VL: DVVMTQSPLSLPVTLGQPASISCRSSQSIVHSNGNTYLEWFQQRPGQSPRRLIYKVSNRFSGVPDRFSGSGSGTDFTLKISRVEAEDVGVYYCFQGSHVPLTFGGGTKVEIK | 145 | – | – |
| Hu1B5-H5/Hu1B5-L1: humanized anti-A2aR IgG1 FES antibody; HCVR SEQ ID NO:56, LCVR SEQ ID NO:71 (antibody, V domains shown, IgG1 FES constant regions) VH: EVQLVQSGAEVKKPGASVKVSCKTSGFTFTRFWMNWVRQAPGQGLEWIGRIDPYDSETQYAHKFWDRATLTVDKSSSTVYMELSSLRSEDTAVYYCGRSLYGKGDYWGQGTTVTVSS VL: DVVMTQSPLSLPVTLGQPASISCRSSQSIVHSNGNTYLEWFQQRPGQSPRRLIYKVSNRFSGVPDRFSGSGSGTDFTLKISRVEAEDVGVYYCFQGSHVPLTFGGGTKVEIK | 82 | – | – |
| Hu1B5-H6/Hu1B5-L1: humanized anti-A2aR IgG1 FES antibody; HCVR SEQ ID NO:57, LCVR SEQ ID NO:71 (antibody, V domains shown, IgG1 FES constant regions) VH: EVQLVQSGAEVKKPGESLRISCKTSGFTFTRFWMNWVRQMPGKGLEWIGRIDPYDSETQYNHKFWDHATLSVDKSSSTVYLQWSSLKASDTAMYYCGRSLYGKGDYWGQGTTVTVSS VL: DVVMTQSPLSLPVTLGQPASISCRSSQSIVHSNGNTYLEWFQQRPGQSPRRLIYKVSNRFSGVPDRFSGSGSGTDFTLKISRVEAEDVGVYYCFQGSHVPLTFGGGTKVEIK | 178 | – | – |
| Hu1B5-H4/Hu1B5-L1: humanized anti-A2aR IgG1 FES antibody; HCVR SEQ ID NO:55, LCVR SEQ ID NO:71 (antibody, V domains shown, IgG1 FES constant regions) VH: EVQLVQSGAEVKKPGASVKVSCKTSGFTFTRFWMNWVRQAPGQGLEWIGRIDPYDSETQYNHKFWDRATLTVDKSSSTVYMELSSLRSEDTAVYYCGRSLYGKGDYWGQGTTVTVSS VL: DVVMTQSPLSLPVTLGQPASISCRSSQSIVHSNGNTYLEWFQQRPGQSPRRLIYKVSNRFSGVPDRFSGSGSGTDFTLKISRVEAEDVGVYYCFQGSHVPLTFGGGTKVEIK | 182 | – | – |
| Hu1B5-H2/Hu1B5-L1: humanized anti-A2aR IgG1 FES antibody; HCVR SEQ ID NO:52, LCVR SEQ ID NO:71 (antibody, V domains shown, IgG1 FES constant regions) VH: EVQLVQSGAEVKKPGASVKVSCKTSGFTFTRFWMNWVRQAPGQGLEWMGRIDPYDSETQYNHKFWDRVTMTVDTSTSTVYMELSSLRSEDTAVYYCGRSLYGKGDYWGQGTTVTVSS VL: DVVMTQSPLSLPVTLGQPASISCRSSQSIVHSNGNTYLEWFQQRPGQSPRRLIYKVSNRFSGVPDRFSGSGSGTDFTLKISRVEAEDVGVYYCFQGSHVPLTFGGGTKVEIK | 165 | – | – |
| Hu3F6-H2/Hu3F6-L2: humanized anti-A2aR IgG1 FES antibody; HCVR SEQ ID NO:59, LCVR SEQ ID NO:77 (antibody, V domains shown, IgG1 FES constant regions) VH: EVQLVQSGAEVKKPGASVKVSCKTSGFAFTSYWMNWVRQAPGQGLEWMGRIDPSDSEAHYHHKFWGRVTMTVDTSTSTVYMELSSLRSEDTAVYYCLRSLYGKGDYWGHGTTVTVSS VL: DVVMTQSPLSLPVTLGQPASISCRSSQSLVHRNGNTYLEWYQQRPGQSPRRLIYKVSNRFSGVPDRFSGSGSGTDFTLKISRVEAEDVGVYYCYQGSHVPLTFGGGTKVEIK | – | 146 | – |
| Hu1B5-H1/Hu1B5-L2: humanized anti-A2aR IgG1 FES antibody; HCVR SEQ ID NO:51, LCVR SEQ ID NO:72 (antibody, V domains shown) VH: QVQLVQSGAEVKKPGASVKVSCKASGFTFTRFWMNWVRQAPGQGLEWMGRIDPYDSETQYNHKFWDRVTMTRDTSTSTVYMELSSLRSEDTAVYYCGRSLYGKGDYWGQGTTVTVSS VL: DVVMTQSPLSLPVTLGQPASISCRSSQSIVHSNGNTYLEWYQQRPGQSPRRLIYKVSNRFSGVPDRFSGSGSGTDFTLKISRVEAEDVGVYYCFQGSHVPLTFGGGTKVEIK | 62 | – | – |
| Hu3F8-H4/Hu3F8-L1: humanized anti-A2aR IgG1 FES antibody; HCVR SEQ ID NO:67, LCVR SEQ ID NO:84 (antibody, V domains shown) VH: EVQLVQSGAEVKKPGASVKVSCKASGFTFTRYWMNWVRQAPGQGLEWIGRIDPSDSETHYNHKFWGRATLTVDKSTSTVYMELSSLRSEDTAVYYCLRSLYGKGDYWGQGTTVTVSS VL: DVVMTQSPLSLPVTLGQPASISCRSSQSIVHSNGNTYLEWFQQRPGQSPRRLIYKVSNRFSGVPDRFSGSGSGTDFTLKISRVEAEDVGVYYCYQGSHVPLTFGGGTKVEIK | – | – | MFI, binding to human A2aR on cell surface (3F8-12E9 derived) [1]: 110 |

Now from value to molecule, other results behind:

| binding to human A2aR on cell surface, mean fluorescence intensity (MFI) | MFI, binding to human A2aR on cell surface (3F6-9G5 derived) [1] | Molecule | other results |
| --- | --- | --- | --- |
| – | 200 | Hu3F6-H3/Hu3F6-L2: humanized anti-A2aR IgG1 FES antibody; HCVR SEQ ID NO:60, LCVR SEQ ID NO:77 (antibody, V domains shown) VH: EVQLVQSGAEVKKPGASVKVSCKTSGFAFTSYWMNWVRQAPGQGLEWIGRIDPSDSEAHYHHKFWGRATLTVDTSSSTVYMELSSLRSEDTAVYYCLRSLYGKGDYWGHGTTVTVSS VL: DVVMTQSPLSLPVTLGQPASISCRSSQSLVHRNGNTYLEWYQQRPGQSPRRLIYKVSNRFSGVPDRFSGSGSGTDFTLKISRVEAEDVGVYYCYQGSHVPLTFGGGTKVEIK | – |
| – | 12 | Hu3F6-H3/Hu3F6-L1: humanized anti-A2aR IgG1 FES antibody; HCVR SEQ ID NO:60, LCVR SEQ ID NO:76 (antibody, V domains shown) VH: EVQLVQSGAEVKKPGASVKVSCKTSGFAFTSYWMNWVRQAPGQGLEWIGRIDPSDSEAHYHHKFWGRATLTVDTSSSTVYMELSSLRSEDTAVYYCLRSLYGKGDYWGHGTTVTVSS VL: DVVMTQSPLSLPVTLGQPASISCRSSQSLVHRNGNTYLEWFQQRPGQSPRRLIYKVSNRFSGVPDRFSGSGSGTDFTLKISRVEAEDVGVYYCYQGSHVPLTFGGGTKVEIK | – |
| – | 191 | Hu3F6-H5/Hu3F6-L2: humanized anti-A2aR IgG1 FES antibody; HCVR SEQ ID NO:62, LCVR SEQ ID NO:77 (antibody, V domains shown) VH: EVQLVQSGAEVKKPGASVKVSCKTSGFAFTSYWMNWVRQAPGQGLEWIGRIDPSDSEAHYAHKFWGRATLTVDKSSSTVYMELSSLRSEDTAVYYCLRSLYGKGDYWGHGTTVTVSS VL: DVVMTQSPLSLPVTLGQPASISCRSSQSLVHRNGNTYLEWYQQRPGQSPRRLIYKVSNRFSGVPDRFSGSGSGTDFTLKISRVEAEDVGVYYCYQGSHVPLTFGGGTKVEIK | – |
| – | 25 | Hu3F6-H5/Hu3F6-L1: humanized anti-A2aR IgG1 FES antibody; HCVR SEQ ID NO:62, LCVR SEQ ID NO:76 (antibody, V domains shown) VH: EVQLVQSGAEVKKPGASVKVSCKTSGFAFTSYWMNWVRQAPGQGLEWIGRIDPSDSEAHYAHKFWGRATLTVDKSSSTVYMELSSLRSEDTAVYYCLRSLYGKGDYWGHGTTVTVSS VL: DVVMTQSPLSLPVTLGQPASISCRSSQSLVHRNGNTYLEWFQQRPGQSPRRLIYKVSNRFSGVPDRFSGSGSGTDFTLKISRVEAEDVGVYYCYQGSHVPLTFGGGTKVEIK | – |
| – | 21 | Hu3F6-H4/Hu3F6-L1: humanized anti-A2aR IgG1 FES antibody; HCVR SEQ ID NO:61, LCVR SEQ ID NO:76 (antibody, V domains shown) VH: EVQLVQSGAEVKKPGASVKVSCKTSGFAFTSYWMNWVRQAPGQGLEWIGRIDPSDSEAHYHHKFWGRATLTVDKSSSTVYMELSSLRSEDTAVYYCLRSLYGKGDYWGHGTTVTVSS VL: DVVMTQSPLSLPVTLGQPASISCRSSQSLVHRNGNTYLEWFQQRPGQSPRRLIYKVSNRFSGVPDRFSGSGSGTDFTLKISRVEAEDVGVYYCYQGSHVPLTFGGGTKVEIK | – |
